According to article doi:10.1101/2024.12.18.629124:

Tests used:
Experiment in all cases: SPR
[1] = target: Tm1 1-335 (Drosophila melanogaster)
[2] = target: GST-Staufen FL (Drosophila melanogaster) (UniProt P25159)
[3] = target: Staufen dsRBD3-4-L4 (aa 578-951) (Drosophila melanogaster) (UniProt P25159)
[4] = target: Tm1 FL (Drosophila melanogaster)

Row | Substance | Kd [2] | Kd [3] | further results
1 | Staufen dsRBD3-4-L4 (aa 578-951) (from UniProt P25159 578-951) (domain or fragment) |  |  | Kd [1]: 224 nM
2 | Khc-Tm1 complex (from UniProt P17210 1-975) | 13 nM |  | 
3 | Tm1 1-213 L93Y (domain or fragment) |  | 1420 nM | 
4 | Staufen dsRBD3-4-5-C-term (domain or fragment) |  |  | Kd [4]: 152 nM
5 | Tm1 FL (natural protein) | 86.6 nM |  | 

Now from value to substance, other results behind:

Row | Kd [2] | Kd [3] | Substance | further results
6 |  | 495 nM | Tm1 1-213 (domain or fragment) | 
7 | 386 nM | 262 nM | Tm1 1-335 (domain or fragment) | 
